From paper PMC4762201 (Nature, 2016)

T1: Prp6 (S. cerevisiae, UniProt P19735 1-899)
T1 sequence: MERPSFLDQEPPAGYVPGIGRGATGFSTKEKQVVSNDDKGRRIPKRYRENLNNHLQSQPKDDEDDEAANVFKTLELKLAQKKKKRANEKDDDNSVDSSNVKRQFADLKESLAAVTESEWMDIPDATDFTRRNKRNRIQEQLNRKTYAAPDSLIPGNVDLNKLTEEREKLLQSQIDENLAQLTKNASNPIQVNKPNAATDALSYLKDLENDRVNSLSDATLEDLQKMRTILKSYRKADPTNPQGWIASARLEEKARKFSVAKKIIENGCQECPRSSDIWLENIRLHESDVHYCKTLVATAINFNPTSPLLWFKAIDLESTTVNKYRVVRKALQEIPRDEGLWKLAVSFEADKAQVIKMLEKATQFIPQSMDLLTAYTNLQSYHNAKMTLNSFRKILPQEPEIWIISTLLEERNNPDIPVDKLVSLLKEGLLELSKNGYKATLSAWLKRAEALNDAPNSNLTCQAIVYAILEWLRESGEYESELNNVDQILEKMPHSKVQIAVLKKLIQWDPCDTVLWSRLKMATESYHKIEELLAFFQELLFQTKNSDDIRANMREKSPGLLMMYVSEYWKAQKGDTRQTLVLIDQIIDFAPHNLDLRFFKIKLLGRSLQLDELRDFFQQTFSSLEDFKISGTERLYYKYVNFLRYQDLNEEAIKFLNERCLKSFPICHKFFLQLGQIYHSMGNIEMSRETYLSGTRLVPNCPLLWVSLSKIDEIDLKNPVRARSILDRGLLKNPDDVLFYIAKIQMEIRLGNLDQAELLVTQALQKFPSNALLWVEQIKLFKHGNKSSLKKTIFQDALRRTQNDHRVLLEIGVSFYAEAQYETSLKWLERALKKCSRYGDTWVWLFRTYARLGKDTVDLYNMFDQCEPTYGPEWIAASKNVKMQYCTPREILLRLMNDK

B1: Prp31 (natural protein)
chain: MSSEEDYFDELEYDLADEVNEEKEDIQTKKLTTVNCQTEKFNPFEILPESIELFRTLALISPDRLSLSETAQILPKIVDLKRILQQQEIDFIKLLPFFNEIIPLIKSNIKLMHNFLISLYSRRFPELSSLIPSPLQYSKVISILENENYSKNESDELFFHLENKAKLTREQILVLTMSMKTSFKNKEPLDIKTRTQILEANSILENLWKLQEDIGQYIASKISIIAPNVCFLVGPEIAAQLIAHAGGVLEFSRIPSCNIASIGKNKHLSHELHTLESGVRQEGYLFASDMIQKFPVSVHKQMLRMLCAKVSLAARVDAGQKNGDRNTVLAHKWKAELSKKARKLSEAPSISETKALPIPEDQPKKKRAGRKFRKYKEKFRLSHVRQLQNRMEFGKQEQTVLDSYGEEVGLGMSNTSLQQAVGATSGSRRSAGNQAKLTKVMKHRISEANQQADEFLISLGHNTEQPNLSPEMVQMHKKQHTNPEEETNWFSGHG
B2: Dib1 (natural protein, S. cerevisiae, UniProt Q06819 1-143, looked up)
chain: MASVLLPQLRTGWHVDQAIVTETKRLVVIRFGRKNDRQCMIMDELLSSIAERVRNFAVIYLCDIDEVSDFDEMYELTDPMTVMFFYHNKHMMCDFGTGNNNKLNFIVDDKQEMIDILETIFRGARKNKGLVVSPYDYNHKRVS
B3: Snu66 (natural protein, S. cerevisiae, UniProt Q12420 1-587, looked up)
chain: MNKTENLSIEETNEIREKLGMKPIPVFQEKNTDHKESLSIEETNELRASLGLKLIPPQQNFNSSPPNVHNTSKIDELREKITKFQKKANAPLRMAHLLEETNVNDDSSWLENMDAIPSSHESKRSSTLPRKGATKEDENIDLHNVQVSYNIEALSPKKDTILTLKESSIFDDTDSTEVLENVKAAEENADREKLRLRQMNKDRRQKKKILNVSSLDIEEEEEGEKHSITTTHLIIGAEQGVMKAPNTISAKPPTGKVKVNFDSANNMSDEDGGDFKPLKIKKRKIKDPRSTKARKSKITDKMEIVKLVDEDESLSWMEEEQPVTIINPRTSSNNELKGPEDLAREIEKARDEEKRRTESILKMREISNSIVVDEKVTFLNTLDTSLSERSATENKVKVHGEGEKNIGDVTNGHTKEGSGNNTLTEAVNNEPNYEGDAENAPNFFSGLASTLGYLRKKSVFTTGDVDLKPGKDVNNSESLRRDVRNKEHTGTGTYTKDKLHGLEQFTSSDSSNANTHSKRQDHYDPDIKLVYRDEKGNRLTTKEAYKKLSQKFHGTKSNKKKRAKMKSRIEARKNTPENGSLFEFDDN
B4: Prp3 (natural protein)
chain: MPPRNTYEKGNPKRQNSPYYKPSFLRREETTNDEEKFQGHGLKTELHSALKSSNLNLIRRTYQTGENPYLSDPHDRGSSSRFNRRYERGLKFYQKGEISKRIAQERTLQKQQEEEELKRKLKQEEDEKDKRKLIESGDLPNLELHEDKFLLDLSKFKIYYDNNHGYEWWDTAYLDEKGELMEKYDMNGTSPAEEKLAEDIDEVDDDDDDEHPSIRYVAHPLPEKINEAKVSIKAYLTQHERKRLRRNRRKMAREAREIKIKLGLLPKPEPKVKLSNMMSVFENDQNITDPTAWEKVVKDQVDLRKRKHLEENERRHEDAIKRRKEAVNMNVEKPTVYHCKVFQFKNLQNPKIRFKLKMNSKELSLKGLCLRIRDDGPGIIIVVGNEKSCKFYENLVMKRIKWNEDFELHTNTGDIKMDMHNNSISKTWEGYLQDCKFKGWFMKVCNDQDSLLRTLGQFDSEHFYSPVQT
B5: Prp4 (natural protein)
chain: MSKYIALENLPVDLQHKGATQNESTADILKQLPHERLQAVLEKIPEEDLEVRRLLSILKKPEVVENEDVQQRRIRLAEILMVDEIDLENINNMENINGEEVDEEDDEDFFTPATSELIFARRFLINYSLERSRKRLQKEMERHQKFNTRQELLSRRTELQRMANLELAGSQLVSTKPISAVSLSTDDMVVATGSWAGDLQVLNSQTLQPLTQKLDSHVGKIGAIDWHPDSNNQMISCAEDGLIKNFQYSNEEGGLRLLGDLVGHERRISDVKYHPSGKFIGSASHDMTWRLWDASTHQELLLQEGHDKGVFSLSFQCDGSLVCSGGMDSLSMLWDIRSGSKVMTLAGHSKPIYTVAWSPNGYQVATGGGDGIINVWDIRKRDEGQLNQILAHRNIVTQVRFSKEDGGKKLVSCGYDNLINVYSSDTWLKMGSLAGHTDKIISLDISNNSHFLVSGGWDRSIKLWN
B6: Snu13 (natural protein, S. cerevisiae, UniProt P39990 1-126, looked up)
chain: MSAPNPKAFPLADAALTQQILDVVQQAANLRQLKKGANEATKTLNRGISEFIIMAADCEPIEILLHLPLLCEDKNVPYVFVPSRVALGRACGVSRPVIAASITTNDASAIKTQIYAVKDKIETLLI

Experiments:
Assay in all cases: cryo-EM structure
Prp6 = target: T1, Prp6
Prp31 = target: B1
Brr2 = Brr2 (S. cerevisiae, UniProt P32639 1-2163)
Prp3 = target: B4
Prp4 = target: B5

Chain of Brr2 (P32639 whole entry): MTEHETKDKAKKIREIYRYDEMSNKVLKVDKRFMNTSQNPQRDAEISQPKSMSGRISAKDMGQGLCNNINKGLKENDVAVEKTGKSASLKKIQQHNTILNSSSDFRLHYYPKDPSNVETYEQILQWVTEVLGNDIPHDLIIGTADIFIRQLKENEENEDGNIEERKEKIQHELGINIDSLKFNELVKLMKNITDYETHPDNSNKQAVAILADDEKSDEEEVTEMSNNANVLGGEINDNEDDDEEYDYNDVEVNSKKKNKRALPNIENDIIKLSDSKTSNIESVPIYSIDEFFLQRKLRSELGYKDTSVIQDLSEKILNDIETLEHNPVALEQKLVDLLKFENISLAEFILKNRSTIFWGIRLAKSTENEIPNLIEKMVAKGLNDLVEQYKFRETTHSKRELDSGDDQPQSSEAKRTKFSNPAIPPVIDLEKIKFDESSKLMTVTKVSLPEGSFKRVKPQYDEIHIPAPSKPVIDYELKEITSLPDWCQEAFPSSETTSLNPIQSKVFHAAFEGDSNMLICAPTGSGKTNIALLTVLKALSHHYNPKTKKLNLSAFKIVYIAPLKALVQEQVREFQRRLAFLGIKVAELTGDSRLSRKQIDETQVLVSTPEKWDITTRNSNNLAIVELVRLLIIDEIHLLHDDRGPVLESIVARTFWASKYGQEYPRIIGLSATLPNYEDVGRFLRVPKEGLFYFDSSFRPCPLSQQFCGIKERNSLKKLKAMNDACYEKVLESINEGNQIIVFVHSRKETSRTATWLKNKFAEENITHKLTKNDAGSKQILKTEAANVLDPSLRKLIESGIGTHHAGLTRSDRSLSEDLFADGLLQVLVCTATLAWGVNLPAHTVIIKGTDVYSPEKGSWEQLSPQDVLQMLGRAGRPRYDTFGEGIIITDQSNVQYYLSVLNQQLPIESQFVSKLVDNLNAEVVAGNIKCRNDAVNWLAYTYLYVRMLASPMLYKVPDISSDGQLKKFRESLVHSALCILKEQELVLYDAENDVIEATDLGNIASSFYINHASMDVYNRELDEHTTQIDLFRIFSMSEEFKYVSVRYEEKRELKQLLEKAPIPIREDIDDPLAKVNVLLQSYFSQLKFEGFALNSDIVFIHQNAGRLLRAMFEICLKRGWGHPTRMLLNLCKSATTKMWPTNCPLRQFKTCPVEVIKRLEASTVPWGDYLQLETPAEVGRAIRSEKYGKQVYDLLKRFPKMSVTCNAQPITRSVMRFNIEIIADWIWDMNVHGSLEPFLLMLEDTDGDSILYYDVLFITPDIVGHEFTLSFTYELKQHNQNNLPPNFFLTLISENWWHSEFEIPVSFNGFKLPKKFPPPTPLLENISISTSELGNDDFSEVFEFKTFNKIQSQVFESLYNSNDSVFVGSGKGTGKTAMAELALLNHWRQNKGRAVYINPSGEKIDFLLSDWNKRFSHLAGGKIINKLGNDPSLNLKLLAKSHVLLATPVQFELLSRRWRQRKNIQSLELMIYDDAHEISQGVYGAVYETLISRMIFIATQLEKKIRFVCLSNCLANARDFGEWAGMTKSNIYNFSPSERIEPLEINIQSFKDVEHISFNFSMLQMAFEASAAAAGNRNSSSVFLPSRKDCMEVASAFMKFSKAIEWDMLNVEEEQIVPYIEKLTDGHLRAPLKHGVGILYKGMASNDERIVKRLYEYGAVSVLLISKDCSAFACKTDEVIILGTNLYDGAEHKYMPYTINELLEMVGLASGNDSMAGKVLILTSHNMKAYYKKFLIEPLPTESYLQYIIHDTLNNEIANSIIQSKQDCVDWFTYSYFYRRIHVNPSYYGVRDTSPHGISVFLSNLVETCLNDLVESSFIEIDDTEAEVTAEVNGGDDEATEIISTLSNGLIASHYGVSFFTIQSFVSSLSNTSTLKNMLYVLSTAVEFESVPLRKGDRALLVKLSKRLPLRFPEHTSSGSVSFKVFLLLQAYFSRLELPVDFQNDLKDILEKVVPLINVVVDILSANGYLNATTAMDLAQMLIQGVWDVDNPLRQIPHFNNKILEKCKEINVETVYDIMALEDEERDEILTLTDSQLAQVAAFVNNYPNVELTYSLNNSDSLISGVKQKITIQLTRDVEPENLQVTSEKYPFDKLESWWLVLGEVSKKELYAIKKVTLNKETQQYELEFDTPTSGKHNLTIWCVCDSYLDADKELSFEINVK

Row | binding result (Prp31) | binding result (Brr2) | binding result (Prp3) | Binder | also measured
1 |  |  |  | B1 | binding result (Prp6): binds
2 | binds |  |  | B2 | 
3 |  | binds |  | B3 | 
4 |  | binds |  | B4 | 
5 |  |  | binds | B5 | 
6 | binds |  | binds | B6 | binding result (Prp4): binds
